Data: US20220112240

Key:
[1] = tested on: T1, D-2 FLAG (branched peptide; branching symbol printed as an image)
T1 sequence 1: FFKY
T1 sequence 2: DYKDDDDKG

[2] = tested on: T2, L-2 FLAG (branched peptide; branching symbol printed as an image)
T2 sequence 1: XFKY
T2 sequence 2: DYKDDDDKG

enterokinase (ENTK), enzyme added in solution
circular dichroism after ENTK cleavage of the branch [1]: the cleavage of the branch results in largely β-sheet (D-1) and random-coil (FLAG-tag) like secondary structures ... as well as for those of D-2 FLAG and L-2 FLAGs | circular dichroism after ENTK cleavage of the branch [2]: the cleavage of the branch results in largely β-sheet (D-1) and random-coil (FLAG-tag) like secondary structures ... as well as for those of D-2 FLAG and L-2 FLAGs
